Measurements taken from patent publication US20130288983A1 (Amgen, published 2013).
Numbering of substitutions follows the chain as printed. Numbers in names are those of the source.

T1: Activin A (Homo sapiens (Human), UniProt P08476 311-426)
T1 sequence: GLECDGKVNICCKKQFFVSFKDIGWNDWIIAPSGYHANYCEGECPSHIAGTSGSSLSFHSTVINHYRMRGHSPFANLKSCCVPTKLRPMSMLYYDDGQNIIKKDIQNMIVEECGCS

B1: ActRIIB-IgG1 Fc E28P, linker GGGGS (Fc fusion)
chain: SGRGEAETRPCIYYNANWELERTNQSGLERCEGEQDKRLHCYASWRNSSGTIELVKKGCWLDDFNCYDRQECVATEENPQVYFCCCEGNFCNERFTHLPEAGGPEVTYEPPPTAPTGGGGSAPELLGGPSVFLFPPKPKDILMISRTPEVTCVVVDVSHEDPEVKFNWYVGGVEVHNAKTKPREEQYNSTYRVVSVLTVLHQDWLNGKEYKCKVSNKALPAPIEKTISKAKGQPREPQVYTLPPSRDELTKNQVSLTCLVKGFYPSDIAVEWESNGQPENNYKTTPPVLDSDGSFFLYSKLTVDKSRWQQGNVFSCSVMHEALHNHYTQKSLSLSPGK
notes: Tested from conditioned media
B2: ActRIIB-IgG1 Fc E28R, linker GGGGS (Fc fusion)
chain: B1 chain with P10R
notes: Tested from conditioned media
B3: ActRIIB-IgG1 Fc E28D, linker GGGGS (Fc fusion)
chain: B1 chain with P10D
notes: Tested from conditioned media
B4: ActRIIB-IgG1 Fc R40V, linker GGGGS (Fc fusion)
chain: B1 chain with P10E, R22V
notes: Tested from conditioned media
B5: ActRIIB-IgG1 Fc R40L, linker GGGGS (Fc fusion)
chain: B1 chain with P10E, R22L
notes: Tested from conditioned media
B6: ActRIIB-IgG1 Fc E28N, linker GGGGS (Fc fusion)
chain: B1 chain with P10N
notes: Tested from conditioned media
B7: ActRIIB-IgG1 Fc R40F, linker GGGGS (Fc fusion)
chain: B1 chain with P10E, R22F
notes: Tested from conditioned media
B8: ActRIIB-IgG1 Fc R40S, linker GGGGS (Fc fusion)
chain: B1 chain with P10E, R22S
notes: Tested from conditioned media
B9: ActRIIB-IgG1 Fc E28G, linker GGGGS (Fc fusion)
chain: B1 chain with P10G
notes: Tested from conditioned media
B10: ActRIIB-IgG1 Fc R40P, linker GGGGS (Fc fusion)
chain: B1 chain with P10E, R22P
notes: Tested from conditioned media
B11: ActRIIB-IgG1 Fc R40I, linker GGGGS (Fc fusion)
chain: B1 chain with P10E, R22I
notes: Tested from conditioned media
B12: ActRIIB-IgG1 Fc E28C, linker GGGGS (Fc fusion)
chain: B1 chain with P10C
notes: Tested from conditioned media
B13: ActRIIB-IgG1 Fc E28T, linker GGGGS (Fc fusion)
chain: B1 chain with P10T
notes: Tested from conditioned media
B14: ActRIIB-IgG1 Fc R40C, linker GGGGS (Fc fusion)
chain: B1 chain with P10E, R22C
notes: Tested from conditioned media
B15: ActRIIB-IgG1 Fc E28S, linker GGGGS (Fc fusion)
chain: B1 chain with P10S
notes: Tested from conditioned media
B16: ActRIIB-IgG1 Fc R40T, linker GGGGS (Fc fusion)
chain: B1 chain with P10E, R22T
notes: Tested from conditioned media
B17: ActRIIB-IgG1 Fc R40Y, linker GGGGS (Fc fusion)
chain: B1 chain with P10E, R22Y
notes: Tested from conditioned media
B18: ActRIIB5-IgG1 Fc R40A, linker GGGGS (Fc fusion)
chain: SGRGEAETRECIYYNANWELEATNQSGLERCEGEQDKRLHCYASWRNSSGTIELVKKGCWLDDFNCYDRQECVATEENPQVYFCCCEGNFCNERFTHLPEAGGPEGPWASTTIPSGGPEATAAAGDQGSGALWLCLEGPAHEGGGGSAPELLGGPSVFLFPPKPKDILMISRTPEVTCVVVDVSHEDPEVKFNWYVGGVEVHNAKTKPREEQYNSTYRVVSVLTVLHQDWLNGKEYKCKVSNKALPAPIEKTISKAKGQPREPQVYTLPPSRDELTKNQVSLTCLVKGFYPSDIAVEWESNGQPENNYKTTPPVLDSDGSFFLYSKLTVDKSRWQQGNVFSCSVMHEALHNHYTQKSLSLSPGK
notes: Tested from conditioned media
B19: ActRIIB5-IgG1 Fc E28A, linker GGGGS (Fc fusion)
chain: B18 chain with E10A, A22R
notes: Tested from conditioned media
B20: ActRIIB5-IgG1 Fc E28W R40A, linker GGGGS (Fc fusion)
chain: B18 chain with E10W
notes: Tested from conditioned media
B21: ActRIIB-IgG1 Fc E28A, linker 2(GGGGS) (Fc fusion)
chain: SGRGEAETRACIYYNANWELERTNQSGLERCEGEQDKRLHCYASWRNSSGTIELVKKGCWLDDFNCYDRQECVATEENPQVYFCCCEGNFCNERFTHLPEAGGPEVTYEPPPTAPTGGGGSGGGGSAPELLGGPSVFLFPPKPKDILMISRTPEVTCVVVDVSHEDPEVKFNWYVGGVEVHNAKTKPREEQYNSTYRVVSVLTVLHQDWLNGKEYKCKVSNKALPAPIEKTISKAKGQPREPQVYTLPPSRDELTKNQVSLTCLVKGFYPSDIAVEWESNGQPENNYKTTPPVLDSDGSFFLYSKLTVDKSRWQQGNVFSCSVMHEALHNHYTQKSLSLSPGK
notes: Tested from conditioned media
B22: ActRIIB-IgG1 Fc wild type, linker GGGGS (Fc fusion)
chain: B1 chain with P10E
notes: Tested from conditioned media
B23: ActRIIB-IgG1 Fc E28A, linker GGGGS (Fc fusion)
chain: B1 chain with P10A
notes: Tested from conditioned media
B24: ActRIIB5-IgG1 Fc wild type, no linker (Fc fusion)
chain: SGRGEAETRECIYYNANWELERTNQSGLERCEGEQDKRLHCYASWRNSSGTIELVKKGCWLDDFNCYDRQECVATEENPQVYFCCCEGNFCNERFTHLPEAGGPEGPWASTTIPSGGPEATAAAGDQGSGALWLCLEGPAHEAPELLGGPSVFLFPPKPKDILMISRTPEVTCVVVDVSHEDPEVKFNWYVGGVEVHNAKTKPREEQYNSTYRVVSVLTVLHQDWLNGKEYKCKVSNKALPAPIEKTISKAKGQPREPQVYTLPPSRDELTKNQVSLTCLVKGFYPSDIAVEWESNGQPENNYKTTPPVLDSDGSFFLYSKLTVDKSRWQQGNVFSCSVMHEALHNHYTQKSLSLSPGK
notes: Tested from conditioned media
B25: ActRIIB5-IgG1 Fc E28A, no linker (Fc fusion)
chain: B24 chain with E10A
notes: Tested from conditioned media
B26: ActRIIB-IgG1 Fc R40K, linker GGGGS (Fc fusion)
chain: B1 chain with P10E, R22K
notes: Tested from conditioned media
B27: ActRIIB-IgG1 Fc R40H, linker GGGGS (Fc fusion)
chain: B1 chain with P10E, R22H
notes: Tested from conditioned media
B28: ActRIIB-IgG1 Fc E28Y, linker GGGGS (Fc fusion)
chain: B1 chain with P10Y
notes: Tested from conditioned media
B29: ActRIIB-IgG1 Fc R40M, linker GGGGS (Fc fusion)
chain: B1 chain with P10E, R22M
notes: Tested from conditioned media
B30: ActRIIB-IgG1 Fc E28V, linker GGGGS (Fc fusion)
chain: B1 chain with P10V
notes: Tested from conditioned media
B31: ActRIIB-IgG1 Fc R40Q, linker GGGGS (Fc fusion)
chain: B1 chain with P10E, R22Q
notes: Tested from conditioned media
B32: ActRIIB-IgG1 Fc E28Q, linker GGGGS (Fc fusion)
chain: B1 chain with P10Q
notes: Tested from conditioned media
B33: ActRIIB-IgG1 Fc R40G, linker GGGGS (Fc fusion)
chain: B1 chain with P10E, R22G
notes: Tested from conditioned media
B34: ActRIIB-IgG1 Fc E28W, linker GGGGS (Fc fusion)
chain: B1 chain with P10W
notes: Tested from conditioned media
B35: ActRIIB-IgG1 Fc R40N, linker GGGGS (Fc fusion)
chain: B1 chain with P10E, R22N
notes: Tested from conditioned media

Each molecule was assayed against Myostatin (human) (UniProt O14793) (assay: cell-based or functional assay).
Chain of Myostatin (human) (O14793 267-375 limits assumed): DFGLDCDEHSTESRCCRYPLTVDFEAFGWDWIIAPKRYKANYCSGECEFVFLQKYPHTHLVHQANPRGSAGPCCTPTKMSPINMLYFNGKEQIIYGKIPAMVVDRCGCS

Molecule	IC50 (nM) for myostatin cell based assay, C2C12/pMARE-luc, 4 nM myostatin [nM]
hActRIIB-hIgG2Fc (E28W) (SEQ ID NO: 91) (Fc fusion)	0.9
hActRIIB-hIgG2Fc (E28Y) (SEQ ID NO: 93) (Fc fusion)	1
hActRIIB-hIgG2Fc (SEQ ID NO: 89) (Fc fusion)	1.1

The molecules below were run against T1, Activin A (assay: Biacore SPR grade, COS transient conditioned media).
Experimental: (§1) Qualitative BIAcore® Assay. E28 and R40 were substituted respectively with other natural amino acids in fusions with IgG1 Fc as described above. Each vActRIIB-IgG1Fc sample from conditioned media was captured on goat anti-human IgG1 Fc antibody (Jackson Immuno Research, cat#109-005-098, lot 63550) coated CMS surface. 20 nM of Activin A was injected over captured sample surfaces using BIACore2000 (BIACore Life Sciences, Piscataway, N.J.). The resulting sensorgrams were normalized to the captured RL (500 RU) of vActRIIB-IgG1Fc variants. The normalized binding response (RU) for some variants are shown in Table 2, and is further described below. Relative binding affinity for activin was also determined by Biacore measurements using conditioned media obtained from mammalian cell expression. Activin A (20 nM) was used to capture soluble receptor polypeptide in the conditioned media and measured SPR signals were normalized. Normalized SPR of +++++: >60, ++++:40-60, +++:20-40, ++:10-20, +: 5-10, −: <5.

Molecule	normalized SPR signal [ru]
B1	< 5
B2	< 5
B3	< 5
B4	< 5
B5	< 5
B6	< 5
B7	< 5
B8	< 5
B9	< 5
B10	< 5
B11	< 5
B12	< 5
B13	< 5
B14	< 5
B15	< 5
B16	< 5
B17	< 5

The molecules below were run against T1, Activin A (assay: Biacore SPR grade, CHO stable conditioned media, 20 nM activin A).
Experimental: as §1

Molecule	Normalized SPR [ru]
B18	20 to 40
B19	20 to 40
B20	40 to 60
B21	20 to 40
B22	40 to 60
B23	20 to 40
B24	20 to 40
B25	20 to 40

Each molecule was assayed against T1, Activin A (assay: Biacore SPR grade, COS transient conditioned media, 20 nM activin A).
Experimental: as §1

Molecule	normalized SPR signal [ru]
B22	5 to 10
B26	10 to 20
B27	10 to 20
B23	5 to 10
B28	> 60
B29	5 to 10
B30	5 to 10
B31	5 to 10
B32	5 to 10
B33	20 to 40
B34	> 60
B35	10 to 20
